T1: human Trop-2 (on the surface of human cell lines) (human, UniProt P09758 27-323)
T1 sequence: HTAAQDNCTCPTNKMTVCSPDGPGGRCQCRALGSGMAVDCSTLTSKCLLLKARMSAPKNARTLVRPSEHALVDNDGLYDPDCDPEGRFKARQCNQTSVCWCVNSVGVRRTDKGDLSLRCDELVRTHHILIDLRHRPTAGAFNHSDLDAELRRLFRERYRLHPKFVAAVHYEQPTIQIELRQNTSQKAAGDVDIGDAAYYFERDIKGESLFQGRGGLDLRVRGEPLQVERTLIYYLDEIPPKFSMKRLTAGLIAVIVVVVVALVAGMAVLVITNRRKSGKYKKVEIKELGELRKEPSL

T2: human Trop-2-His (human, UniProt P09758 27-274, limits assumed)
T2 construct: by analogy with the macaque construct it is probably the extracellular domain with a His tag; also called Trop-2-His protein
T2 sequence: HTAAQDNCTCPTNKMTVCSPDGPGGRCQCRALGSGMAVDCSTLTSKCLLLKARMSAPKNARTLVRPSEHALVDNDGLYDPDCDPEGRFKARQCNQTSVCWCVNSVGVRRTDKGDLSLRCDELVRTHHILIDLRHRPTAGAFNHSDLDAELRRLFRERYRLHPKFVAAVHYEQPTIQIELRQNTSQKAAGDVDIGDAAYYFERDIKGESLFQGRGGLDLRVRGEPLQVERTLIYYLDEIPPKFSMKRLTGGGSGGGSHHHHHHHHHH

T3: Macaque Trop-2-His (macaque, UniProt P09758 27-274 (human entry))
T3 construct: Extracellular domain of macaque Trop-2 recombinantly linked to His; also called monkey Trop-2-His protein; monkey Trop-2
T3 chain: T2 sequence with M36V, S67N, I204V

B1: hz-Ab2-1.1 (antibody, human IgG1, kappa, V domains shown)
VH: EVQLVESGGGLIQPGGSLRLSCAVSGFSLTYYGIDWVRQPPGKGLEWVSVIWGSGNTKYNSALKSRLTISRDNSKSTLYLQMNSLRAEDTAVYYCARFYEGFAYWGQGTLVTVSS
VL: DIQMTQSPSSLSASVGDRVTITCKASQDINSYLSWFQQKPGKAPKTLIYRANRLVEGVPSRFSGSGSGQDYTLTISSLQPEDFATYYCLQYDEFPLTFGQGTKVEIKR
notes: Humanized antibody
B2: hz-Ab2-1.2 (antibody, human IgG1, kappa, V domains shown)
VH: B1 VH with G9P, S49G, S61Y, R71K
VL: B1 VL
notes: Humanized antibody
B3: ch-Ab2 (antibody, human IgG1, kappa, V domains shown)
VH: EVQLVESGPGLVAPSQSLSITCTVSGFSLTYYGIDWVRQPPGKGLEWLGVIWGSGNTKYNSALMSRLSISKDNSKSQVFLRMNSLQSDDTAIYYCARFYEGFAYWGQGTLVTVSA
VL: AIVLTQSPSSMYASLGERVTITCKASQDINSYLSWFQQKPGKSPKTLIYRANRLVDGVPSRFSGSGSGQDYSLTISSLEYEDMGIYYCLQYDEFPLTFGVGTKLELKR
notes: also called chimeric antibody of Ab2
B4: hz-Ab2-2.1 (antibody, human IgG1, kappa, V domains shown)
VH: B1 VH
VL: B1 VL with K24R, Y71F, F94Y
notes: Humanized antibody
B5: hz-Ab2-2.2 (antibody, human IgG1, kappa, V domains shown)
VH: B1 VH with G9P, S49G, S61Y, R71K
VL: B1 VL with K24R, Y71F, F94Y
notes: Humanized antibody
B6: hz-Ab2-2.3 (antibody, human IgG1, kappa, V domains shown)
VH: QVQLQESGPGLVKPSETLSLTCTVSGFSLTYYGIDWIRQPPGKGLEWIGVIWGSGNTKYNSALKSRVTISKDNSKSQFSLKLSSVTAADTAVYYCARFYEGFAYWGQGTLVTVSS
VL: B1 VL with K24R, Y71F, F94Y
notes: Humanized antibody

Where a chain is given by its changes, count along the chain named.

The source of these data is patent US20250034275A1 (CHIA TAI TIANQING PHARMACEUTICAL GROUP, published 2025).

The target of the first experiment is T1, human Trop-2 (on the surface of human …). The experiment is described as follows: cell-based or functional assay.
Consider B1, for which the “ADCC reporter (Jurkat-CD16a v158-NFAT-luciferase), target cell H322, EC50” value (“ADCC reporter … target cell H322, EC50” for short) was 1.45 nM and the “ADCC reporter (Jurkat-CD16a v158-NFAT-luciferase), target cell HCC1806, EC50” value (“ADCC reporter … target cell HCC1806, EC50” for short) came out at 4.1 nM.

For B2, the “ADCC reporter … target cell H322, EC50” value stood at 0.31 nM and the “ADCC reporter … target cell HCC1806, EC50” value is 0.42 nM.

In the case of B3, the “ADCC reporter … target cell H322, EC50” value stood at 0.17 nM and the “ADCC reporter … target cell HCC1806, EC50” value turned out to be 0.2 nM.

A further experiment has the same target. Description: cell-based or functional assay. This is another data set of the same source.
Regarding B1, the “ADCC, PBMC killing (LDH), H322, EC50” value worked out at 0.13 nM; the “ADCC, PBMC killing (LDH), H322, Maximum killing (%)” value (“ADCC … H322, Maximum killing (%)” below) stood at 47.8%; the “ADCC, PBMC killing (LDH), HCC1806, EC50” value was found to be 0.46 nM; the “ADCC, PBMC killing (LDH), HCC1806, Maximum killing (%)” value (from here on “ADCC … HCC1806, Maximum killing (%)”) stood at 32.9%.

As for B2, the “ADCC, PBMC killing (LDH), H322, EC50” value amounted to 0.01 nM; the “ADCC … H322, Maximum killing (%)” value was found to be 48.4%; the “ADCC, PBMC killing (LDH), HCC1806, EC50” value was 0.03 nM; the “ADCC … HCC1806, Maximum killing (%)” value is 36.6%.

In the case of B3, the “ADCC, PBMC killing (LDH), H322, EC50” value was determined as 0.01 nM; the “ADCC … H322, Maximum killing (%)” value came to 48.1%; the “ADCC, PBMC killing (LDH), HCC1806, EC50” value was 0.02 nM; the “ADCC … HCC1806, Maximum killing (%)” value came out at 40%.

For a further experiment the target is unchanged. Description: flow cytometry, HCC38 cells. The procedure:
(§1) Tumor cells expressing Trop-2 were prepared into a cell suspension (0.5-1×10⁶ cells/mL) using the FACS buffer (Miltenyi Biotec, 130-091-221), and the cell suspension was added to a 96-well V-bottom plate at 100 μL/well. After centrifugation and removal of the supernatant, the test antibodies diluted with the FACS buffer to different concentrations (0.006 nM-100 nM) were each added at 50 μL/well. The mixture was incubated in the dark in a 4° C. refrigerator for 1 h. The plate was then washed 3 times with the FACS buffer by centrifugation at 300 g, and Alexa Fluor 488 goat anti-human IgG (H+L) (Bio-legend, 409304, 1:500 dilution) at working concentration was added. The mixture was incubated in the dark in a 4° C. refrigerator for 40 min. The plate was then washed 3 times with the FACS buffer by centrifugation at 300 g, the geometric mean fluorescence intensity (MFI) was measured on a Sartorius iQue3 flow cytometer, and the binding EC₅₀ values of the antibodies for tumor cells with different Trop-2 expression levels were calculated
B2 had an EC50 of 0.76 nM.

With B3, the concentration giving a half-maximal response (EC50) stood at 0.59 nM.

The target is the same in a further experiment. Description: flow cytometry, HCC1806 cells. The procedure:
as §1
As to B2, it took 0.9 nM to reach a half-maximal effect (EC50).

B3 yielded an EC50 of 0.78 nM.

Another experiment concerns the target T2, human Trop-2-His. The experiment is described as follows: ELISA, plate-coated human Trop-2-His. The procedure: (§2) After the liquid was discarded, 2% BSA (SIGMA, B2064-100G) diluted with PBS was added at 300 μL/well for blocking, and the mixture was incubated at 37° C. for 2 h. After the blocking was completed, the blocking buffer was discarded, the plate was washed 3 times with PBST buffer (pH 7.4 PBS containing 0.1% tween-20), the antibody solution diluted in a gradient was added at 100 μL/well, and the mixture was incubated at 37° C. for 1 h. After the incubation was completed, the plate was washed 3 times with PBST, the goat anti-human IgG (H+L) (JacksonImmunoResearch, 109-035-098, 1:5000 dilution) was added at 100 μL/well, and the mixture was incubated at 37° C. for 1 h. After the plate was washed 3 times with PBST, a TMB chromogenic substrate (TIANGEN, PA107-01) was added at 100 μL/well. The mixture was incubated at room temperature for 10-15 min, and then 1 M H₂SO₄ was added at 50 μL/well to terminate the reaction. The absorbance values at 450 nm were taken using a microplate reader. The binding curves of antibodies for antigen were fitted using software, and the EC₅₀ values were calculated.
Molecule B1 registered an EC50 of 0.082 nM.

The molecule B4 displayed a 50% effective concentration (EC50) of 1.08 nM.

B2: the EC50 is 0.076 nM.

B5 yielded an EC50 of 0.218 nM.

Molecule B6 displayed a concentration giving a half-maximal response (EC50) of 0.359 nM.

Molecule B3 returned an EC50 of 0.085 nM.

The next experiment deals with T3, Macaque Trop-2-His. The experiment is described as follows: ELISA, plate-coated macaque Trop-2-His. The procedure: as §2, with “times with the PBST buffer” for “times with PBST buffer”
In turn, B1 returned a half-maximal effective concentration (EC50) of 0.133 nM.

The molecule B4 gave a concentration giving a half-maximal response (EC50) of 1.19 nM.

B2 returned an EC50 of 0.064 nM.

Molecule B5 yielded a half-maximal effective concentration (EC50) of 0.341 nM.

In the case of B6, the EC50 was 0.83 nM.

With B3, the midpoint of the response, the EC50, lay at 0.048 nM.

The target of a further experiment is T2, human Trop-2-His. The experiment is described as follows: SPR (Biacore 8K), antibody captured, Trop-2-His as analyte. An excerpt: The affinity of antibodies for human Trop-2-His was detected in the form of antibody capturing. The antibody was affinity-captured by a CM5 (Cat. #29149603, GE) biosensor chip conjugated with an anti-human IgG antibody (from human antibody capture kit, Cat. #29234600, GE), then the antigen human Trop-2-His flowed on the surface of the chip, and a Biacore 8K instrument was used for detecting reaction signals in real time to obtain association and dissociation curves. After dissociation was completed for each assay cycle, the chip was washed clean and regenerated with a regeneration buffer, 3M MgCl₂ (from human antibody capture kit, Cat. #29234600, GE). The association and dissociation curves were collected by Biacore 8K Control Software 3.0 in real time, and the data were analyzed by Biacore Insight Evaluation Software 3.0. The data were fitted using a Langmuir 1:1 model after double subtraction (namely, in each cycle, the contrast channel signal was subtracted from the experimental channel signal, and the sample signal was subtracted from the blank signal), and the association rate constant Ka, the dissociation rate constant Kd, and the equilibrium constant KD were calculated.
As to B1, binding was put at a Kd of 47.8 nM, the dissociation rate constant (koff) worked out at 0.0029 s⁻¹ and the kon was 60600 M⁻¹ s⁻¹.

Take B4: binding was put at a Kd of 0.686 nM, the off-rate (koff) amounted to 0.00023 s⁻¹ and the kon came to 336000 M⁻¹ s⁻¹.

B2 showed a dissociation constant Kd of 1.43 nM, an off-rate (koff) of 0.00508 s⁻¹ and a kon of 3.56e+06 M⁻¹ s⁻¹.

In turn, B5 gave a Kd of 2.41 nM, an off-rate (koff) of 0.00059 s⁻¹ and an on-rate constant (kon) of 245000 M⁻¹ s⁻¹.

Take B6: the Kd amounted to 2.72 nM, the koff worked out at 0.000643 s⁻¹ and the on-rate constant (kon) is 237000 M⁻¹ s⁻¹.
